Tests used:
Test in all cases: holdup assay
Set-up in all cases: key: below the threshold = too weak to quantify, mostly under pKd 3.1 to 4
RAPGEF6, Q8TEU7 = biological target: T1, RAPGEF6, Q8TEU7
T1 sequence (Q8TEU7 525-625, limits assumed, looked up): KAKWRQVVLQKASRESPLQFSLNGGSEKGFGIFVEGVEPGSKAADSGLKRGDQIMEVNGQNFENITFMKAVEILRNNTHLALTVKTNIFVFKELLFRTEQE

MPDZ_10, O75970 = biological target: T2, MPDZ_10, O75970
T2 sequence (O75970 1624-1722, limits assumed, looked up): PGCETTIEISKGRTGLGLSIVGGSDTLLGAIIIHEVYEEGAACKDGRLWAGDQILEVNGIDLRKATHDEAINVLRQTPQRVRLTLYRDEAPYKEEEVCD

PTPN13_1, Q12923 = biological target: T3, PTPN13_1, Q12923
T3 sequence (Q12923 1088-1188, limits assumed, looked up): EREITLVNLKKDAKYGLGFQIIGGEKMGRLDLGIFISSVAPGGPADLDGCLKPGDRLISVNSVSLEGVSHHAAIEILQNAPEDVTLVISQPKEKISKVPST

PTPN3, P26045 = biological target: PTPN3, P26045
TJP1_3, Q07157 = biological target: TJP1_3, Q07157
GRIP2_5, Q9C0E4 = biological target: GRIP2_5, Q9C0E4
MAGI1_2, Q96QZ7 = biological target: MAGI1_2, Q96QZ7
ARHGAP21, Q5T5U3 = biological target: T4, ARHGAP21, Q5T5U3
T4 sequence (Q5T5U3 45-169, limits assumed, looked up): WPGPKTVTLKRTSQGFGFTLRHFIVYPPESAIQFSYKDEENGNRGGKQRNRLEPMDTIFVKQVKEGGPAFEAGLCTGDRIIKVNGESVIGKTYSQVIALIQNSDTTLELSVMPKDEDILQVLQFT

CARD11, Q9BXL7 = biological target: T5, CARD11, Q9BXL7
T5 sequence (Q9BXL7 662-765, limits assumed, looked up): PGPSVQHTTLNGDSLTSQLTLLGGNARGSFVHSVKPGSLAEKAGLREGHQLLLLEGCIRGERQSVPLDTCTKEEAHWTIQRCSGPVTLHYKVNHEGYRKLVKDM

DVL3, Q92997 = biological target: T6, DVL3, Q92997
T6 sequence (Q92997 244-331, limits assumed, looked up): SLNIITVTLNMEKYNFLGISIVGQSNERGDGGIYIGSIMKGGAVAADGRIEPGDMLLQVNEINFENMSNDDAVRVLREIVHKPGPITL

IL16_4, Q14005 = biological target: IL16_4, Q14005
PDLIM1, O00151 = biological target: PDLIM1, O00151
NHERF4_4, Q86UT5 = biological target: NHERF4_4, Q86UT5
HTRA2, O43464 = biological target: HTRA2, O43464
RADIL, Q96JH8 = biological target: T7, RADIL, Q96JH8
T7 sequence (Q96JH8 971-1071, limits assumed, looked up): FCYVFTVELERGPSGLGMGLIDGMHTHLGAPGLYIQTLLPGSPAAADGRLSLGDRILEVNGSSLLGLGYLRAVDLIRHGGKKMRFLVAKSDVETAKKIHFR

SIPA1L2, Q9P2F8 = biological target: T8, SIPA1L2, Q9P2F8
T8 sequence (Q9P2F8 945-1036, limits assumed, looked up): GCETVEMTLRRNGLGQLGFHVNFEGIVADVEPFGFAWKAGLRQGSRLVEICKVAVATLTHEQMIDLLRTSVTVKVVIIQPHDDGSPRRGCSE

ARHGEF12, Q9NZN5-2 = biological target: ARHGEF12, Q9NZN5-2
GIPC2, Q8TF65 = biological target: GIPC2, Q8TF65
Inadl_3, Q8NI35 = biological target: Inadl_3, Q8NI35
ARHGEF11, O15085 = biological target: T9, ARHGEF11, O15085
T9 sequence (O15085 42-136, limits assumed, looked up): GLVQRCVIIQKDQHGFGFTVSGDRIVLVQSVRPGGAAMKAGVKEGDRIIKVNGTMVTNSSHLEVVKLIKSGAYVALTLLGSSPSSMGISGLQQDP

Inadl_2, Q8NI35 = biological target: Inadl_2, Q8NI35
MPP6, Q9NZW5 = biological target: T10, MPP6, Q9NZW5
T10 sequence (Q9NZW5 125-219, limits assumed, looked up): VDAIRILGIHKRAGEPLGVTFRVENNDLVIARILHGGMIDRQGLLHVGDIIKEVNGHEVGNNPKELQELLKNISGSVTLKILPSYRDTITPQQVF

MPDZ_5, O75970 = biological target: T11, MPDZ_5, O75970
T11 sequence (O75970 695-796, limits assumed, looked up): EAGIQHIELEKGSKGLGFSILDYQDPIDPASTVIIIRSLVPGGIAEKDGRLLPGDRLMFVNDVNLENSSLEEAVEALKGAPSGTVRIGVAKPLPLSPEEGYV

LIN7C, Q9NUP9 = biological target: T12, LIN7C, Q9NUP9
T12 sequence (Q9NUP9 88-185, limits assumed, looked up): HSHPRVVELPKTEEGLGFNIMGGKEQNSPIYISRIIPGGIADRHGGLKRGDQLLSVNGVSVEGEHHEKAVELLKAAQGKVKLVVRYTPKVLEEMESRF

Inadl_6, Q8NI35 = biological target: Inadl_6, Q8NI35
[1] = plain residues with an end cap or a label only (N-terminal biotin on a linker: gsgsgs; C-terminal amide)
[2] = plain residues with an end cap or a label only (N-terminal biotin on a linker: ttds)
[3] = plain residues with an end cap or a label only (N-terminal biotin on a linker: none)

Measured: pKd

Sequence of Inadl_3, Q8NI35 (Q8NI35 359-469): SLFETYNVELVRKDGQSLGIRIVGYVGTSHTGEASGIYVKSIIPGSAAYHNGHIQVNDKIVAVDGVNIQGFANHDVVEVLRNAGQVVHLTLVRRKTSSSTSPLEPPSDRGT
Sequence of HTRA2, O43464 (O43464 355-458): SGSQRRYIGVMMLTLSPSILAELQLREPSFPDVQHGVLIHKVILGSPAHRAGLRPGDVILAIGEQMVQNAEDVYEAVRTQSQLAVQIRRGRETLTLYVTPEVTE
Sequence of GRIP2_5, Q9C0E4 (Q9C0E4 544-642): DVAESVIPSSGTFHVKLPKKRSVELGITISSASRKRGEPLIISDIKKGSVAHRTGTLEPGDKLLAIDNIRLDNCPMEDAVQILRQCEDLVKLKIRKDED
Sequence of ARHGEF12, Q9NZN5-2 (Q9NZN5 other isoform, or with tags, fused parts or gaps): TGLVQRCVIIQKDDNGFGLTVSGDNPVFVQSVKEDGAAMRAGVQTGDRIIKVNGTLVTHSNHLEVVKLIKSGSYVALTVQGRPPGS
Sequence of Inadl_6, Q8NI35 (Q8NI35 1058-1167): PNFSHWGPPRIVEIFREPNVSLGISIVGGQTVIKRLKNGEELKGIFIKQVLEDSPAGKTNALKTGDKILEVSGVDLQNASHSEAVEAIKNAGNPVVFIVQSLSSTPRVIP
Sequence of PTPN3, P26045 (P26045 505-587): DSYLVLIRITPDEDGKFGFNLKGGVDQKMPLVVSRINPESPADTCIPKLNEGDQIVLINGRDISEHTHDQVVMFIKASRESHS
Sequence of MAGI1_2, Q96QZ7 (Q96QZ7 456-580): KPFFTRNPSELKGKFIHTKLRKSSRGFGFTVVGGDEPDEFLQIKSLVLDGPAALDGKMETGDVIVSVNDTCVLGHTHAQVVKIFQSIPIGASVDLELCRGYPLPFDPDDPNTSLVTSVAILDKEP
Sequence of NHERF4_4, Q86UT5 (Q86UT5 464-550): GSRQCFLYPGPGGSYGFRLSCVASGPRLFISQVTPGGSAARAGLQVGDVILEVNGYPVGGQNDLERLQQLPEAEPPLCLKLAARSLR
Sequence of Inadl_2, Q8NI35 (Q8NI35 238-335): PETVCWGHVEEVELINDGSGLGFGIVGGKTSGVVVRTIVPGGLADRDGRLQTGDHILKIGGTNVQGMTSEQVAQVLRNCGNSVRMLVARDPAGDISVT
Sequence of IL16_4, Q14005 (Q14005 1229-1329): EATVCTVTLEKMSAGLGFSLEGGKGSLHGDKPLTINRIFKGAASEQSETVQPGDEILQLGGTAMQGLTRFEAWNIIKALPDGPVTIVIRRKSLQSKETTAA
Sequence of TJP1_3, Q07157 (Q07157 416-512): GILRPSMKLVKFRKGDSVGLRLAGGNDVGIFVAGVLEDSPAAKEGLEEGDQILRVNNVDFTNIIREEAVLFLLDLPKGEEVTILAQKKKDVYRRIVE
Sequence of GIPC2, Q8TF65 (Q8TF65 112-203): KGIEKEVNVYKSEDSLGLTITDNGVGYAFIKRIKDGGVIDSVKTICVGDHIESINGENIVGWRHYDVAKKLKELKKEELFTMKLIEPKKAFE
Sequence of PDLIM1, O00151 (O00151 1-87): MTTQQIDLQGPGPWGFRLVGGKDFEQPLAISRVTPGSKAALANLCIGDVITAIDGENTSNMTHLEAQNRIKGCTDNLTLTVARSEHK

B1: DFNB31_int, Q9P202 (peptide)
chain: VSVDDVRSTSQGLSSY
4.12: LIN7C, Q9NUP9; [1]
3.65: MPP6, Q9NZW5; [1]
3.68: PTPN3, P26045; [1]
below the threshold: RAPGEF6, Q8TEU7; [1] | MPDZ_10, O75970; [1] | PTPN13_1, Q12923; [1] | TJP1_3, Q07157; [1] | GRIP2_5, Q9C0E4; [1] | MAGI1_2, Q96QZ7; [1] | ARHGAP21, Q5T5U3; [1] | CARD11, Q9BXL7; [1] | DVL3, Q92997; [1] | IL16_4, Q14005; [1] | PDLIM1, O00151; [1] | NHERF4_4, Q86UT5; [1] | HTRA2, O43464; [1] | RADIL, Q96JH8; [1] | SIPA1L2, Q9P2F8; [1] | ARHGEF12, Q9NZN5-2; [1] | GIPC2, Q8TF65; [1] | Inadl_3, Q8NI35; [1] | ARHGEF11, O15085; [1] | Inadl_2, Q8NI35; [1] | MPDZ_5, O75970; [1] | Inadl_6, Q8NI35; [1]

B2: HPV73-E6, Q82005 (peptide)
chain: SGSRPSATVV
4.15: MAGI1_2, Q96QZ7; [2]
3.57: RAPGEF6, Q8TEU7; [2] | MPP6, Q9NZW5; [2]
3.48: PDLIM1, O00151; [2]
4.27: RADIL, Q96JH8; [2]
3.81: LIN7C, Q9NUP9; [2]
3.61: PTPN13_1, Q12923; [2]
3.62: GIPC2, Q8TF65; [2]
3.5: DVL3, Q92997; [2]
3.53: MPDZ_5, O75970; [2]
below the threshold: PTPN3, P26045; [2] | TJP1_3, Q07157; [2] | GRIP2_5, Q9C0E4; [2] | ARHGAP21, Q5T5U3; [2] | CARD11, Q9BXL7; [2] | IL16_4, Q14005; [2] | NHERF4_4, Q86UT5; [2] | HTRA2, O43464; [2] | SIPA1L2, Q9P2F8; [2] | ARHGEF12, Q9NZN5-2; [2] | Inadl_3, Q8NI35; [2] | Inadl_2, Q8NI35; [2] | Inadl_6, Q8NI35; [2]
3.74: MPDZ_10, O75970; [2]
3.98: ARHGEF11, O15085; [2]

B3: SARS-CoV2-E, P0DTC4 (peptide)
chain: NLNSSRVPDLLV
3.47: Inadl_3, Q8NI35; [3] | Inadl_2, Q8NI35; [3]
3.76: RADIL, Q96JH8; [3]
below the threshold: RAPGEF6, Q8TEU7; [3] | MPDZ_10, O75970; [3] | PTPN13_1, Q12923; [3] | PTPN3, P26045; [3] | TJP1_3, Q07157; [3] | GRIP2_5, Q9C0E4; [3] | MAGI1_2, Q96QZ7; [3] | ARHGAP21, Q5T5U3; [3] | CARD11, Q9BXL7; [3] | DVL3, Q92997; [3] | IL16_4, Q14005; [3] | PDLIM1, O00151; [3] | NHERF4_4, Q86UT5; [3] | HTRA2, O43464; [3] | SIPA1L2, Q9P2F8; [3] | ARHGEF12, Q9NZN5-2; [3] | GIPC2, Q8TF65; [3] | ARHGEF11, O15085; [3] | MPP6, Q9NZW5; [3] | MPDZ_5, O75970; [3] | LIN7C, Q9NUP9; [3] | Inadl_6, Q8NI35; [3]

— publication PMC9482650, “Quantitative fragmentomics allow affinity mapping of interactomes” (Nature Communications, 2022)
